Source: IntAct's records for PubMed 22212508

Columns and labels:
hdgr2_mouse Hdgfl2 = hdgr2_mouse Hdgfl2 (UniProt Q3UMU9)
hdgr2_mouse Hdgfl2, sequence (Q3UMU9 whole entry): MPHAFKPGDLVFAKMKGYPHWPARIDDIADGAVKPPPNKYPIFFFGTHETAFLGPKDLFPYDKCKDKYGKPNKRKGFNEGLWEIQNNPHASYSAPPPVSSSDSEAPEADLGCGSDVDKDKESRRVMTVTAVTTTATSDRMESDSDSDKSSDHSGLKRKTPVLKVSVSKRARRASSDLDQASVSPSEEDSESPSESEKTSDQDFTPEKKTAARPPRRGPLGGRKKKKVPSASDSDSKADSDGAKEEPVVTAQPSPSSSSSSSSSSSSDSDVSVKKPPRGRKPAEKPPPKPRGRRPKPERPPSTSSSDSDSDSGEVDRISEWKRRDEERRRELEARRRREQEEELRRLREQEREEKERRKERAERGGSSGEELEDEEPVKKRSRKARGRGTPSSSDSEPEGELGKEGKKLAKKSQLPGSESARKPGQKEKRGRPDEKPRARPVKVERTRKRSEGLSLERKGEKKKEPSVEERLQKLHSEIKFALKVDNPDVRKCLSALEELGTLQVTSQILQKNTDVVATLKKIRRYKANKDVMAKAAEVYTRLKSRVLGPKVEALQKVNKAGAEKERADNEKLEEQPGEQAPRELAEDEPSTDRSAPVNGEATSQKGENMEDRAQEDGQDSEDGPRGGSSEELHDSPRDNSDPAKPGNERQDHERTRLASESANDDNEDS

Hepatoma-derived growth factor (Mus musculus), P51859 S165A, sequence (P51859 whole entry S165A): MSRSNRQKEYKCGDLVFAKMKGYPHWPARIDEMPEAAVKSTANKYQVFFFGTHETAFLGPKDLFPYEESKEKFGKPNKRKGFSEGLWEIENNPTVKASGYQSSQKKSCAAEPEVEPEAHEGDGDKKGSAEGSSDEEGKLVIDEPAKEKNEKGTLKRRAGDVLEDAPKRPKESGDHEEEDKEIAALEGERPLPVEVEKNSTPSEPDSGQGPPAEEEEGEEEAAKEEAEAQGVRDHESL
q3umu9-1, Q3UMU9-1, sequence (Q3UMU9 whole entry): as the sequence (Q3UMU9 whole entry) above
q3umu9-3, Q3UMU9-3, sequence (Q3UMU9 other isoform, or with tags, fused parts or gaps): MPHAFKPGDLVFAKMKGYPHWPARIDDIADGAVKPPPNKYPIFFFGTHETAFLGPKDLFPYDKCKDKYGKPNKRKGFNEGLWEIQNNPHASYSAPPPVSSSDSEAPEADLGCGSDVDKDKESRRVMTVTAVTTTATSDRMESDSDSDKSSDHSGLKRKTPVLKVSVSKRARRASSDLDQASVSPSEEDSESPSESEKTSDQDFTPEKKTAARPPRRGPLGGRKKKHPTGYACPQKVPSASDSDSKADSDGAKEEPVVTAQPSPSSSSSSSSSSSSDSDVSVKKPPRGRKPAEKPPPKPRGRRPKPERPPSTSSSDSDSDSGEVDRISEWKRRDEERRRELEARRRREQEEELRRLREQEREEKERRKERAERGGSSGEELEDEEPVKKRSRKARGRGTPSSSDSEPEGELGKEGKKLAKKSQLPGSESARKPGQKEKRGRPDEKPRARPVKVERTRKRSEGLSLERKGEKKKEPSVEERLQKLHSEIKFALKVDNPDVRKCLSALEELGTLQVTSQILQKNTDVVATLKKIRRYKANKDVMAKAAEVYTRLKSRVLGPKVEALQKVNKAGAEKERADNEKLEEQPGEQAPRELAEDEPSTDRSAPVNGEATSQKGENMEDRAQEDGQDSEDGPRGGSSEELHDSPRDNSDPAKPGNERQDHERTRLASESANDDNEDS

effect of a mutation on the interaction (q3umu9-1, Q3UMU9-1): increasing interaction | effect of a mutation on the interaction (q3umu9-3, Q3UMU9-3): increasing interaction | effect of a mutation on the interaction (hdgr2_mouse Hdgfl2): increasing interaction
Substance: Hepatoma-derived growth factor (Mus musculus), P51859 S165A
